PMC7408900, “Cancer-Associated Substitutions in RNA Recognition Motifs of PUF60 and U2AF65 Reveal Residues Required for Correct Folding and 3′ Splice-Site Selection”

B1: UBE2F-can3'ss-32 (ssRNA)
RNA: UUUUUUUGUUUUGUUUUGUGUUUUUUGAUAGA
B2: UBE2F-cr3'ss-32 (ssRNA)
RNA: CUUUUUGUUUCCUUUUUUUUUUAAUUUAAAGG

How the values were obtained:
U2AF65 E162K [1] = biological target: T1, U2AF65 E162K (human, UniProt P26368 1-475, E162K); assay: EMSA; Kd only in figure; Hill 2.23; binding not apparently reduced; EMSA: 40 mM Tris pH 8.0, 5 mM MgCl2, 0.25 ug/uL heparin, 0.01% Triton, 1 mM DTT, room temperature 20 min; 6% native PAGE in 0.5x TBE at 4 C; 15-17 nM biotin-RNA; conditions: protein: recombinant; tags: N-terminal GST (pGEX6P); label: 5' biotin; single strand
PUF60 H169Y = PUF60 H169Y (human, UniProt Q9UHX1 1-559, H169Y); assay: EMSA; higher affinity than cr probe; approximate Kd only in figure; Hill 2.4; EMSA: 40 mM Tris pH 8.0, 5 mM MgCl2, 0.25 ug/uL heparin, 0.01% Triton, 1 mM DTT, room temperature 20 min; 6% native PAGE in 0.5x TBE at 4 C; 15-17 nM biotin-RNA; conditions: protein: recombinant; tags: 2xHis-lipoyl-TEV, removed by TEV; label: 5' biotin; single strand
U2AF65 E162K [2] = biological target: T1, U2AF65 E162K; assay: EMSA; Kd only in figure; Hill 1.84; binding not apparently reduced; EMSA: 40 mM Tris pH 8.0, 5 mM MgCl2, 0.25 ug/uL heparin, 0.01% Triton, 1 mM DTT, room temperature 20 min; 6% native PAGE in 0.5x TBE at 4 C; 15-17 nM biotin-RNA; conditions: protein: recombinant; tags: N-terminal GST (pGEX6P); label: 5' biotin; single strand

T1 sequence (P26368 whole entry E162K, one chain of several): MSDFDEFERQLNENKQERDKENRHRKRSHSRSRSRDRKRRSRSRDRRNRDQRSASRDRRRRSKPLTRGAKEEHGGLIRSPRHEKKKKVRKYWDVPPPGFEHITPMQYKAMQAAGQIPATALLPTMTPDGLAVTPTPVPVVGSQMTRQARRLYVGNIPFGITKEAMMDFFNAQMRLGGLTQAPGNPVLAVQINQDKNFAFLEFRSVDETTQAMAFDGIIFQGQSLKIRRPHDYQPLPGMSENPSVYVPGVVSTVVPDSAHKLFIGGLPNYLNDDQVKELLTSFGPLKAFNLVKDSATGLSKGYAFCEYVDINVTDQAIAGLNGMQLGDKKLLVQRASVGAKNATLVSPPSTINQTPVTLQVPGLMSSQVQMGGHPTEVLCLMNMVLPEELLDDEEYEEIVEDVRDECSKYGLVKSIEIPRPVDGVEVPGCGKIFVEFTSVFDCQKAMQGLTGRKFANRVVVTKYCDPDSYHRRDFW
PUF60 H169Y, sequence (Q9UHX1 whole entry H169Y): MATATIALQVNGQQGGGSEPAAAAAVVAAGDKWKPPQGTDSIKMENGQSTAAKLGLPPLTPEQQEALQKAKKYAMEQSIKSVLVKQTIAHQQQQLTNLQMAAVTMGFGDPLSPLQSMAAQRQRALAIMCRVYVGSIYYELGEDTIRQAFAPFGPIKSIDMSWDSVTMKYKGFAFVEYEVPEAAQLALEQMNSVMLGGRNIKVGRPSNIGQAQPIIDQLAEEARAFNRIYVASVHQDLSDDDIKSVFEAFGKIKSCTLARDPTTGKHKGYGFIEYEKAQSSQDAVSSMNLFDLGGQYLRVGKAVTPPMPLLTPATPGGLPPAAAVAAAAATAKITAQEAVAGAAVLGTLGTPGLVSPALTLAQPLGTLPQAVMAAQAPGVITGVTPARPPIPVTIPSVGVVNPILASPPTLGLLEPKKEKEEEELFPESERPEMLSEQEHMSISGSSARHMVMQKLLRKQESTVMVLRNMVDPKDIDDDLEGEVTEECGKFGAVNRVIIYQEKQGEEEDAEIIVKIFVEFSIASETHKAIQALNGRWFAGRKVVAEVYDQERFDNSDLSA

| Binder | binding result (U2AF65 E162K [1]) | binding result (PUF60 H169Y) | binding result (U2AF65 E162K [2]) |
| --- | --- | --- | --- |
| B1 | binds | binds | – |
| B2 | – | – | binds |
